Among the data in publication PMC2615091 are FRET efficiency values, retold here.

The target in this experiment is lamin B1 (mouse (endogenous in mouse embryonic fibroblasts)) (UniProt P14733). Kind of experiment: FRET or BRET.
UniProt P14733, sequence (P14733 whole entry): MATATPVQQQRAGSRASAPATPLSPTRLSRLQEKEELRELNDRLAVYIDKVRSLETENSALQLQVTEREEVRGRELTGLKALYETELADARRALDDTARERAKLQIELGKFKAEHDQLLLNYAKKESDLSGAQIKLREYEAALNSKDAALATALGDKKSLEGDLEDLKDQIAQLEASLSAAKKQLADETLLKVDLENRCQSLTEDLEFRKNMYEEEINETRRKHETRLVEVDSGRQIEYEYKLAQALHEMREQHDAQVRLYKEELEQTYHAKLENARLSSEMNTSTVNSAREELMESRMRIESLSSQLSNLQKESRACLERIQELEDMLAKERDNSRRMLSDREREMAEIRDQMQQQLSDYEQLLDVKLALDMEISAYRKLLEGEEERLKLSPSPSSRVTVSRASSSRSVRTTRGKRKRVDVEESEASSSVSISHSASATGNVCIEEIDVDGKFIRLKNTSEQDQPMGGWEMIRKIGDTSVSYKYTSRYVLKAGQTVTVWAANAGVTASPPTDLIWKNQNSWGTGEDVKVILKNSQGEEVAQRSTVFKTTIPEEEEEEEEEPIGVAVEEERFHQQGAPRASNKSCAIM

As for “Oct-1–EGFP (from UniProt P14859 1-743) (natural protein)”, the FRET efficiency is 4.63%.
